Data as given in US20200095327A1 (DRAGONFLY THERAPEUTICS, published 2020).

B1: CD33-TriNKET-C26 (ADI-28226 and a CD33-binding domain) (bispecific antibody, V domains shown)
VH 1: QVQLQQWGAGLLKPSETLSLTCAVYGGSFSGYYWSWIRQPPGKGLEWIGEIDHSGSTNYNPSLKSRVTISVDTSKNQFSLKLSSVTAADTAVYYCARARGPWSFDPWGQGTLVTVSS
VL 1: DIQMTQSPSTLSASVGDRVTITCRASQSISSWLAWYQQKPGKAPKLLIYKASSLESGVPSRFSGSGSGTEFTLTISSLQPDDFATYYCQQYGSFPITFGGGTKVEIK
VH 2: QVQLVQSGAEVKKPGASVKVSCKASGYTFTDYVVHWVRQAPGQGLEWMGYINPYNDGTKYNEKFKGRVTMTRDTSISTAYMELSRLRSDDTAVYYCARDYRYEVYGMDYWGQGTLVTVSS
VL 2: DIVLTQSPASLAVSPGQRATITCTASSSVNYIHWYQQKPGQPPKLLIYDTSKVASGVPARFSGSGSGTDFTLTINPVEANDTANYYCQQWRSYPLTFGQGTKLEIK
notes: also called C26-TriNKET-CD33; CD33-targeting TriNKET
B2: CD33-TriNKET-F04 (ADI-29404 and a CD33-binding domain) (bispecific antibody, V domains shown)
VH 1: B1 VH 1
VL 1: DIQMTQSPSTLSASVGDRVTITCRASQSISSWLAWYQQKPGKAPKLLIYKASSLESGVPSRFSGSGSGTEFTLTISSLQPDDFATYYCEQYDSYPTFGGGTKVEIK
VH 2: B1 VH 2
VL 2: B1 VL 2
notes: also called F04-TriNKET-CD33; CD33-targeting TriNKET
B3: mcFAE-C26.99 TriNKET (bispecific antibody, mouse IgG2c)
light 1: DIQMTQSPSTLSASVGDRVTITCRASQSISSWLAWYQQKPGKAPKLLIYKASSLESGVPSRFSGSGSGTEFTLTISSLQPDDFATYYCQQYGSFPITFGGGTKVEIKRADAAPTVSIFPPSSEQLTSGGASVVCFLNNFYPKDINVKWKIDGSERQNGVLNSWTDQDSKDSTYSMSSTLTLTKDEYERHNSYTCEATHKTSTSPIVKSFNRNEC
heavy 1: QVQLQQWGAGLLKPSETLSLTCAVYGGSFSGYYWSWIRQPPGKGLEWIGEIDHSGSTNYNPSLKSRVTISVDTSKNQFSLKLSSVTAADTAVYYCARARGPWSFDPWGQGTLVTVSSAKTTAPSVYPLAPVCGGTTGSSVTLGCLVKGYFPEPVTLTWNSGSLSSGVHTFPALLQSGLYTLSSSVTVTSNTWPSQTITCNVAHPASSTKVDKKIEPRVPITQNPCPPLKECPPCAAPDLLGGPSVFIFPPKIKDVLMISLSPMVTCVVVDVSEDDPDVQISWFVNNVEVHTAQTQTHREDYNSTLRVVSALPIQHQDWMSGKEFKCKVNNRALPSPIEKTISKPRGPVRAPQVYVLPPPAEEMTKKEFSLTCMIKGFLPAEIAVDWTSNGRTEQNYKNTATVLDSDGSYFMYSRLRVQKSTWERGSLFACSVVHEGLHNHLTTKTISRSLGK
light 2: DIQMSQSPASLSASVGETVTITCRASGNIYNYLAWYQQKQGKSPHLLVYDAKTLADGVPSRFSGSGSGTQYSLKISSLQTEDSGNYYCQHFWSLPFTFGSGTKLEIKRADAAPTVSIFPPSSEQLTSGGASVVCFLNNFYPKDINVKWKIDGSERQNGVLNSWTDQDSKDSTYSMSSTLTLTKDEYERHNSYTCEATHKTSTSPIVKSFNRNEC
heavy 2: EVQLQQSGAELVRPGALVKLSCKTSGFNIKDYFLHWVRQRPDQGLEWIGWINPDNGNTVYDPKFQGTASLTADTSSNTVYLQLSGLTSEDTAVYFCTRRDYTYEKAALDYWGQGASVIVSSAKTTAPSVYPLAPVCGGTTGSSVTLGCLVKGYFPEPVTLTWNSGSLSSGVHTFPALLQSGLYTLSSSVTVTSNTWPSQTITCNVAHPASSTKVDKKIEPRVPITQNPCPPLKECPPCAAPDLLGGPSVFIFPPKIKDVLMISLSPMVTCVVVDVSEDDPDVQISWFVNNVEVHTAQTQTHREDYNSTLRVVSALPIQHQDWMSGKEFKCKVNNRALPSPIEKTISKPRGPVRAPQVYVLPPPAEEMTKKEFSLTCMITGFLPAEIAVDWTSNGRTEQNYKNTATVLDSDGSYLMYSKLTVQKSTWERGSLFACSVVHEGLHNHLTTKTISRSLGK
notes: also called murine cFAE-C26.99 TriNKET; TA99 TriNKET

What was measured:
[1] = biological target: T1, CD33 expressed on MV4-11 human AML cells (human, UniProt P20138 18-364); experiment: flow cytometry on MV4-11 cells, anti-human IgG secondary
T1 construct: whole, on cells; also called cell-expressed CD33
From the text: Human AML cell line MV4-11, expressing CD33 was used to assay the binding of TriNKETs to the tumor associated antigen.

[2] = biological target: T2, Tyrp-1 on B16F10 melanoma cells (UniProt P07147 25-537, limits assumed); experiment: flow cytometry on B16F10 tumor cells, 60 ug/mL with four-fold dilutions, goat anti-mouse PE secondary (FIG. 50A)
T2 construct: whole, on cells; also called Tyrp-1-positive B16F10 melanoma cells; B16F10 tumor cells
Method: 60 μg/mL of indicated antibodies with four-fold dilutions were added to 2×10⁵ B16F10 tumor cells (FIG. 50A) or EL4-mNKG2D cells (FIG. 50B). Binding was assessed using a goat anti-mouse PE secondary antibody followed by flow cytometric analysis.

T1 sequence (P20138 18-364): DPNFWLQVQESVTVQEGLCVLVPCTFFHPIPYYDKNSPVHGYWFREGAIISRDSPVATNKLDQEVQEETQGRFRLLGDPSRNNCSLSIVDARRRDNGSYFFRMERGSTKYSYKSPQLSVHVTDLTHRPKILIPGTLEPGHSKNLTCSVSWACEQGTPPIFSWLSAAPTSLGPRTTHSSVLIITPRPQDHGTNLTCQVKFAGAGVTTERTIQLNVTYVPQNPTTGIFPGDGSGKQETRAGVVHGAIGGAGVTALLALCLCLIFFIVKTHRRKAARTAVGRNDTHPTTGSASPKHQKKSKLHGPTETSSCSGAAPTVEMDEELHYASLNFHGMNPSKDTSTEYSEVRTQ

| Binder | binding result [1] | binding result [2] |
| --- | --- | --- |
| B1 | binds |  |
| B2 | binds |  |
| B3 |  | binds |
